We go through 1 molecule from publication doi:10.1101/2021.03.04.433768 (bioRxiv, 2021).

This assay concerns the target HIV-1 envelop trimer (BG505 DS-SOSIP) (HIV-1 group M subtype A, isolate BG505, UniProt Q2N0S6, stabilised).

B1: VHH9 row 4 (VHH9 group, Nb10-Nb13) (VHH)
VHH: QVKLEESGGGSVQAGGSLRLSCTAPGFTSNSCGMAWYRQAPGKEREFVSSISTDGTTSYADSVKGRFTISKDKAKDTVYLQMNSLKPEDTAMYSCKTYGPYCYFDVWGAGTTVTVSA
B1: the binding result was “binds”.
